Results as given in paper PMC4233142.

Target: YFPC-2aCore (hepatitis C virus genotype 2a (JFH-1)) (UniProt Q99IB8)
Assay: split reporter

Substance “YFPN-2a5B (from UniProt Q99IB8 2443-3033) (natural protein)” has a percent of RFP-expressing cells that also expressed YFP of 43%.
